Results: patent US20110110945A1, “Immunoglobulin Fusion Proteins and Methods of Making” (TransTech Pharma, Inc., priority 2007, published 2011)

Assays:
Details in all cases: ligand 5 micrograms per well; dilutions of initial fusion protein solution; FIG. 7
[1] = biological target: T1, amyloid-beta (Amyloid Beta (1-40)) (Homo sapiens, UniProt P05067); assay: In vitro ligand binding assay (ELISA), immobilized amyloid-beta
T1 construct: Amyloid Beta (1-40) from Biosource; purchased Biosource
Protocol: (§1) For example, the fusion protein may be used in a binding assay to identify potential ligands that bind to the non-immunoglobulin protein. In one example embodiment of such a binding assay, a known ligand may coated onto a solid substrate (e.g., Maxisorb plates) at a biologically relevant concentration (e.g., about 5 micrograms per well), where each well contains a total volume of about 100 microliters (μL). The plates may be incubated at 4° C. overnight to allow the ligand to bind to the substrate. Alternatively, shorter incubation periods at higher temperature (e.g., room temperature) may be used. After a period of time to allow for the ligand to bind to the substrate, the assay wells may be aspirated and a blocking buffer (e.g., 1% BSA in 50 mM imidizole buffer, pH 7.2) may be added to block nonspecific binding. […] The fusion protein bound to the immobilized ligand may be detected in a variety of ways. […] The bound complex may be detected by adding a substrate for the secondary antibody complex, e.g., the alkaline phosphatase substrate, para-nitrophenylphosphate (PNPP), and measuring conversion of PNPP to para-nitrophenol (PNP) as an increase in absorbance at 405 nm. […] In the absence of ligand (i.e., coating with only BSA) there was no increase in absorbance. The binding assay of the present invention may be used to quantify ligand binding. […]

S100b = biological target: T2, S100b (Homo sapiens, UniProt P04271); assay: In vitro ligand binding assay (ELISA), immobilized S100b
T2 sequence (P04271 1-92): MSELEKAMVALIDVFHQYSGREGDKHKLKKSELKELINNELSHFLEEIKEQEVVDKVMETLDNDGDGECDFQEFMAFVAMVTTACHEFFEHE
Protocol: as §1

amphoterin = biological target: T3, amphoterin (Homo sapiens, UniProt P09429); assay: In vitro ligand binding assay (ELISA), immobilized amphoterin
T3 sequence (P09429 1-215): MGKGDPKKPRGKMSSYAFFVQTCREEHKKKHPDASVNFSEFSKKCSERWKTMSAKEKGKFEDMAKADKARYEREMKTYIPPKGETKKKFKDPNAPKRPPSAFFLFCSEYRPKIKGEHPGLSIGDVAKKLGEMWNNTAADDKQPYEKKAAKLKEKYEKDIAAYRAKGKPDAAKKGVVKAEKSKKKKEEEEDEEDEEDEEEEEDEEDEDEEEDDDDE
Protocol: as §1

T1 sequence (P05067 672-711 limits assumed): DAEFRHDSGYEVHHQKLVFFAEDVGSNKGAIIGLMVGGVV

B1: TTP-3000: RAGE fusion protein: V domain of human RAGE (amino acids 1-136) linked to hinge-less CH2 and CH3 of human IgG1; SEQ ID NO: 17/19 (protein)
chain 1: MAAGTAVGAWVLVLSLWGAVVGAQNITARIGEPLVLKCKGAPKKPPQRLEWKLNTGRTEAWKVLSPQGGGPWDSVARVLPNGSLFLPAVGIQDEGIFRCQAMNRNGKETKSNYRVRVYQIPGKPEIVDSASELTAGPSVFLFPPKPKDTLMISRTPEVTCVVVDVSHEDPEVKFNWYVDGVEVHNAKTKPREEQYNSTYRVVSVLTVLHQDWLNGKEYKCKVSNKALPAPIEKTISKAKGQPREPQVYTLPPSRDELTKNQVSLTCLVKGFYPSDIAVEWESNGQPENNYKTTPPVLDSDGSFFLYSKLTVDKSRWQQGNVFSCSVMHEALHNHYTQKSLSLSPGK
chain 2: ENITARIGEPLVLKCKGAPKKPPQRLEWKLNTGRTEAWKVLSPQGGGPWDSVARVLPNGSLFLPAVGIQDEGIFRCQAMNRNGKETKSNYRVRVYQIPGKPEIVDSASELTAGPSVFLFPPKPKDTLMISRTPEVTCVVVDVSHEDPEVKFNWYVDGVEVHNAKTKPREEQYNSTYRVVSVLTVLHQDWLNGKEYKCKVSNKALPAPIEKTISKAKGQPREPQVYTLPPSRDELTKNQVSLTCLVKGFYPSDIAVEWESNGQPENNYKTTPPVLDSDGSFFLYSKLTVDKSRWQQGNVFSCSVMHEALHNHYTQKSLSLSPGK
modifications: synthetic three domain RAGE-Fc IgG fusion protein; synthetic three domain RAGE-Fc IgG fusion protein having signal sequence removed
specifically interact: binding to immobilized amyloid-beta (increase in absorbance at 405 nm) [1] | binding to immobilized S100b (increase in absorbance at 405 nm) (S100b) | binding to immobilized amphoterin (increase in absorbance at 405 nm) (amphoterin)
